For one molecule, reduction of binding free energy against wild type, binding result and Ka results are on record in paper PMC3419727, “Identifying the Hotspots on the Top Faces of WD40-Repeat Proteins from Their Primary Sequences by β-Bulges and DHSW Tetrads” (PLoS ONE, 2012).

Changes are numbered by the printed parent chain. Several values for one entry are separate records, joined by “and”; a condition that tells them apart may be missing. Identical values can stand only once.

Assay [1] concerns the target The remained five residues (Ala substitutions at R1 positions of Tup11). Nature of the assay: ITC; Fep1 (~1.4 mM) injected, 2 µl each time, into Tup11 WT or mutant (~0.2 mM); 25°C; 1×PBS pH 7.4, 150 mM NaCl; iTC200 (MicroCal); Fep1 into buffer subtracted as background. (In general: In ITC the heat of successive injections is recorded.)
For assay [2], the target named is Leu524Ala at D-1 and Phe557Ala at R1-2. Described as above.
The target in assay [3] is T1, S. japonicus Tup11 WD40 domain (301–630) Phe557Ala (S. japonicus, UniProt B6JV84 301-630, Phe557Ala).
T1 construct: Tup11, S. japonicus, WD40 domain, amino acids 301-630
T1 sequence (looked up): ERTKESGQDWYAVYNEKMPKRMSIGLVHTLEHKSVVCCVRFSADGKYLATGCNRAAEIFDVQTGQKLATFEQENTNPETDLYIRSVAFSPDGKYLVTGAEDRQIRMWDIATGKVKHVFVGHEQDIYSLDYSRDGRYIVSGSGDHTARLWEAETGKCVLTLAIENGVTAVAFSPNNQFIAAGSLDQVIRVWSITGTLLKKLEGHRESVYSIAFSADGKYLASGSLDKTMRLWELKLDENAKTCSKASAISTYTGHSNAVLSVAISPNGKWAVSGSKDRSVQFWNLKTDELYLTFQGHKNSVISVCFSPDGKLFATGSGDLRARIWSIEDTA
The description is as above. The settings on record: both partners purified.

The target of assay [4] is T2, S. japonicus Tup11 WD40 domain (amino acids 301–630), wild type (S. japonicus, UniProt B6JV84 301-630).
T2 chain: T1 sequence (looked up) with A257F
Description: ITC.

B1: C-terminal region of S. pombe Fep1 (amino acids 319–564) (domain or fragment, UniProt Q10134 319-564, looked up)
chain: AAGEPDNNGKVYYSYGPTQEQSILPLPENKHEGLPPYQNEYVPNGIRANQVVYPGQLVAVGNDSSKQLSESTTSNTDNNGVATANQSNPLGMKFHLPPILPVGESVCLPPRTSAKPRIAEGIASLLNPEEPPSNSDKQPSMSNGPKSEVSPSQSQQAPLIQSSTSPVSLQFPPEVQGSNVDKRNYALNVLSQLRSQHDLMIQELHNLNQHIQQIDEWLRSSDNENMASEHIKSSTPAVVASGALQT
notes: Fep1, GATA-factor, S. pombe, C-terminal region, amino acids 319-564
As for B1, the reduction of binding free energy against wild type is 1 kcal/mol and 1.5 kcal/mol in assay [1]; 0.5 kcal/mol and 0.8 kcal/mol in assay [2]. In addition, the binding result in assay [3] is recorded as “binds”. In assay [4], this molecule gave a Ka of 70000 M⁻¹.
